Laboratory results published in paper PMC4118869 (PLoS ONE, 2014).

Tests used:
[1] = molecular target: T1, recombinant H7-HA, A/Netherlands/219/2003 (H7N7) (Influenza A virus …, UniProt Q6VMK1); test: SPR; data not shown: sdAbs on immobilised recombinant H3-HA and H7-HA; conditions: both partners purified
T1 construct: source: bought: Protein Sciences

[2] = molecular target: T2, recombinant H3-HA, A/Brisbane/10/2007 (H3N2) (Influenza A virus A/Brisbane/10/2007 …, UniProt A8W8K8, strain); test: as above; conditions: both partners purified
T2 construct: source: bought: Protein Sciences

[3] = molecular target: phage displayed HA gene fragment P66-I282 (Influenza A virus A/California/07/2009 …, UniProt C3W5X2); test: ELISA; conditions: both partners purified
[4] = molecular target: hemagglutinin of A/California/07/2009 (H1N1)pdm09, in the influenza virus antigen standard (Influenza A virus A/California/07/2009 …, UniProt C3W5X2, strain); test: ELISA; conditions: one partner purified
[5] = molecular target: phage displayed HA gene fragment D363-G478 (Influenza A virus A/California/07/2009 …, UniProt C3W5X2); test: ELISA; conditions: both partners purified
[6] = molecular target: phage displayed HA gene fragment L193-K225 (Influenza A virus A/California/07/2009 …, UniProt C3W5X2); test: ELISA; conditions: both partners purified
[7] = molecular target: hemagglutinin of A/Brisbane/10/2007 (H3N2), in the influenza virus antigen standard (Influenza A virus A/Brisbane/10/2007 …, UniProt A8W8K8, strain); test: ELISA; conditions: one partner purified
[8] = molecular target: recombinant H5-HA, A/Vietnam/1203/2004 (H5N1) (Influenza A virus A/Vietnam/1203/2004 …, UniProt Q5EP31, strain); test: SPR; conditions: both partners purified
[9] = molecular target: recombinant H9-HA, A/HongKong/1073/99 (H9N2) (Influenza A virus A/Hong Kong/1073/99 …, UniProt Q9ICY5, strain); test: SPR; conditions: both partners purified
[10] = molecular target: recombinant H1-HA (D18-I530), A/California/06/2009 (H1N1)pdm09 (Influenza A virus A/California/06/2009 …, UniProt C3W5S1, strain); test: SPR; conditions: both partners purified
[11] = molecular target: T3, recombinant H2-HA, A/Japan/305/57 (H2N2) (Influenza A virus A/Japan/305/1957 …, UniProt P03451, strain); test: SPR; conditions: both partners purified
T3 construct: source: bought: E-Enzymes (Protein Sciences in the SPR methods)

[12] = molecular target: recombinant HA1 domain (D18-R344), A/California/06/2009 (H1N1)pdm09 (Influenza A virus A/California/06/2009 …, UniProt C3W5S1, strain); test: SPR; conditions: both partners purified

B1: R1a-E5 (VHH)
VHH: QLQLVESGGGLVQPGGSLRLSCTASGFSLDNYAIGWFRRAPGEEREGVSFITSTSAVTKYADSVKGRFTISRDNAKNTVYLQMTSLKPEDTAVYYCAGTRWVPTMKADEYNYWGQGTQVTVSS
notes: source: E. coli WK6 periplasm, purified (Talon IMAC, Superdex 75 SEC)
binding result [1]: no binding
binding result [2]: no binding
binding result [3]: no binding
binding result [4]: binds
binding result [5]: no binding
binding result [6]: no binding
binding result [7]: no binding
binding result [8]: no binding
binding result [9]: no binding
Kd [10]: 0.79 nM
koff [10]: 7.61e-05 s⁻¹
kon [10]: 97600 M⁻¹ s⁻¹
binding result [11]: no binding

B2: R2a-G9 (VHH)
VHH: QVQLVESGGGLVQPGGSLRLSCAASDNIFSFYTMGWYRQSPGKERELVAVIGNGGNTNYADSVKGRFTISRDNGKNKAHLQMNSLKPEDTAVYYCKASGPGGVEVWGQGTQVTVSS
notes: as for B1
binding result [1]: no binding
binding result [2]: no binding
binding result [3]: binds
binding result [4]: binds
binding result [6]: no binding
binding result [7]: no binding
Kd [12]: 68.7 nM
binding result [8]: no binding
binding result [9]: no binding
Kd [10]: 22.1 nM
koff [10]: 0.00392 s⁻¹
kon [10]: 177000 M⁻¹ s⁻¹
binding result [11]: no binding

B3: R2a-H9 (VHH)
VHH: QVQLVESGGGLVQPGGSLRLSCAASTNIASFYTMGWYRQTPGQQRDVVAVIGNGGNTNYADSVKGRFTISRDGAKNTAHLQMNSLKPEDTDVYYCKASGPGGVILWGQGTQVTVSS
notes: as for B1
binding result [1]: no binding
binding result [2]: no binding
binding result [3]: binds
binding result [4]: binds
binding result [6]: no binding
binding result [7]: no binding
Kd [12]: 468 nM
binding result [8]: no binding
binding result [9]: no binding
Kd [10]: 2.77 nM
koff [10]: 0.000384 s⁻¹
kon [10]: 139000 M⁻¹ s⁻¹
binding result [11]: no binding

B4: R1a-G5 (VHH)
VHH: QLQLVESGGGLVQPGGSLRLSCAASGSISRIVTMGWYRQASGKERELVAVIGNYGNTNYADSVKGRFTVSRDNAKDTAYLQMNGLNVEDTAIYYCKTSTTTPPYEYWGQGTQVTVSS
notes: as for B1
binding result [1]: no binding
binding result [2]: no binding
binding result [3]: binds
binding result [4]: binds
binding result [5]: no binding
binding result [6]: no binding
binding result [7]: no binding
Kd [12]: 15.6 nM
binding result [8]: no binding
binding result [9]: no binding
Kd [10]: 5.85 nM
koff [10]: 0.00504 s⁻¹
kon [10]: 862000 M⁻¹ s⁻¹
binding result [11]: no binding

B5: R1a-F4 (VHH)
VHH: QVQLVESGGGLVQPGGSLRLSCAASGSISRIVTMGWYRQGPGKERELVAVIGNYGNTNYADSVKGRFTVSRDNAKDTAYLQMNNLNVEDTAMYYCKCSTTTPPHEFWGQGTQVTVSS
notes: as for B1
binding result [1]: no binding
binding result [2]: no binding
binding result [3]: binds
binding result [4]: binds
binding result [5]: no binding
binding result [6]: no binding
binding result [7]: no binding
Kd [12]: 4.74 nM
binding result [8]: no binding
binding result [9]: no binding
Kd [10]: 6.46 nM
koff [10]: 0.0022 s⁻¹
kon [10]: 340000 M⁻¹ s⁻¹
binding result [11]: no binding

B6: R1a-E6 (VHH)
VHH: QVQLVESGGGLVQPGGSLRLSCAASGFTLGAYAIAWFRQAPGKEREGVSCISPSDSFTEYGDSVKGRFTVSRDNAKNTVYLQMNSLQPEDTAVYYCAADPVCTAGWYRPSRFDLWGQGTQVTVSS
notes: as for B1
binding result [1]: no binding
binding result [2]: no binding
binding result [3]: binds
binding result [4]: binds
binding result [5]: no binding
binding result [6]: no binding
binding result [7]: no binding
Kd [12]: 36 nM
binding result [8]: no binding
binding result [9]: no binding
Kd [10]: 9.97 nM
koff [10]: 0.000151 s⁻¹
kon [10]: 15100 M⁻¹ s⁻¹
binding result [11]: no binding

B7: R2a-E8 (VHH)
VHH: QLQLVESGGGLVQPGGSLRLSCTASGDIFVMYMIDWYRQAPGKQRELVASIDGRGTPMYADSVKGRFTISRDNAKNTVYLQMNSLKPEDTAVYSCHAKSPLVDNEYWGQGTQVTVSS
notes: as for B1
binding result [1]: no binding
binding result [2]: no binding
binding result [3]: no binding
binding result [4]: binds
binding result [5]: no binding
binding result [6]: no binding
binding result [7]: no binding
binding result [8]: no binding
binding result [9]: no binding
Kd [10]: 0.79 nM
koff [10]: 0.000148 s⁻¹
kon [10]: 187000 M⁻¹ s⁻¹
binding result [11]: no binding

B8: R1a-F5 (VHH)
VHH: QLQLVESGGGLVQVGGSLRLSCAASGFPFDGYAIAWFRQAPGKEREGVSCRASDGNTYYAESLKGRLTMSTDNAKNTVYLQMNSLKPEDTAVYYCAAASWVASLWSPSEYDYWGQGTQVTVSS
notes: as for B1
binding result [1]: no binding
binding result [2]: no binding
binding result [3]: binds
binding result [4]: binds
binding result [5]: no binding
binding result [6]: no binding
binding result [7]: no binding
Kd [12]: 6.06 nM
binding result [8]: no binding
binding result [9]: no binding
Kd [10]: 10 nM
koff [10]: 0.000414 s⁻¹
kon [10]: 40200 M⁻¹ s⁻¹
binding result [11]: no binding

B9: R1a-G6 (VHH)
VHH: QVQLVESGGGLVQSGGSLRLSCAASGSMSRIITMGWYRQAPGMERELVAVIGNNDNTVYGDSVQGRFTVSRDNAKNTAYLQMNSLNAEDTAMYYCKISTLTPPHEYWGQGTQVTVSS
notes: as for B1
binding result [1]: no binding
binding result [2]: no binding
binding result [3]: binds
binding result [4]: binds
binding result [5]: no binding
binding result [6]: no binding
binding result [7]: no binding
Kd [12]: 4.62 nM
binding result [8]: no binding
binding result [9]: no binding
Kd [10]: 4.83 nM
koff [10]: 0.000355 s⁻¹
kon [10]: 73800 M⁻¹ s⁻¹
binding result [11]: no binding

B10: R2a-F9 (VHH)
VHH: QVQLVESGGGLVQPGGSLRLSCSASGSISSIVTMGWYRQAPGKERELVAVIGNYGNTNYADSVKGRFTVSRDNAKNTVYLQMNSLNVEDTAMYVCKFSSTVAPHEYWGQGTQVTVSS
notes: as for B1
binding result [1]: no binding
binding result [2]: no binding
binding result [3]: binds
binding result [4]: binds
binding result [5]: no binding
binding result [6]: no binding
binding result [7]: no binding
Kd [12]: 78.8 nM
binding result [8]: no binding
binding result [9]: no binding
Kd [10]: 78.8 nM
koff [10]: 0.065 s⁻¹
kon [10]: 825000 M⁻¹ s⁻¹
binding result [11]: no binding

B11: R2a-B9 (VHH)
VHH: QVQLVESGGGLVQPGGSLRLSCAASGSAFSINAMGWYRQAPGEEREFVAAITAGGNTYYADSAKARFTISRDNAKNMLYLQMNSLKPEDTAMYYCAATKAFGIATITADYELWGQGTQVTVSS
notes: as for B1
binding result [1]: no binding
binding result [2]: no binding
binding result [3]: no binding
binding result [4]: binds
binding result [5]: no binding
binding result [6]: no binding
binding result [7]: no binding
binding result [8]: no binding
binding result [9]: no binding
Kd [10]: 0.16 nM
koff [10]: 4.94e-05 s⁻¹
kon [10]: 312000 M⁻¹ s⁻¹
binding result [11]: no binding

B12: R1a-C5 (VHH)
VHH: QVQLVESGGGLVQPGGSLRLSCAASNDIFSFYTMGWYLQAIGKQREPVAVIGNGGNTNYAESVKGRFTISRDGAKNTAYLQMNSLKPEDTAVYYCMASGPGGLNVWGQGTQVTVSS
notes: as for B1
binding result [1]: no binding
binding result [2]: no binding
binding result [3]: binds
binding result [4]: binds
binding result [6]: binds
binding result [7]: no binding
Kd [12]: 38.4 nM
Kd [10]: 37.6 nM
koff [10]: 0.0206 s⁻¹
kon [10]: 548000 M⁻¹ s⁻¹
